Source: US20150118725A1 (GLOBAL BIOENERGIES, priority 2012, published 2015)

Tests used:
[1] = tested on: Streptococcus mitis MDP decarboxylase (strain B6, SEQ ID NO: 10); assay: Phosphotransferase activity on mevalonate (pyruvate kinase/lactate dehydrogenase coupled ADP assay); format: biochemical; settings: 40° C., pH 7.5, 5 mM ATP, 0 to 5 mM R,S-sodium mevalonate
Description: (§1) 1.5 U/ml Lactate dehydrogenase
(§2) The pH was adjusted to 7.5.

[2] = Combined enzymatic assay: Th. acidophilum (L200E) and S. mitis MDP decarboxylases, isoprenol by GC; format: biochemical; settings: 0 to 0.4 mg S. mitis enzyme with 0.01 mg Th. acidophilum (L200E) in 0.1 ml, 37° C., 24 h (FIG. 10)
Protocol: 0.01 mg of purified MDP decarboxylase from Th. acidophilum (mutant L200E) and 0.2 mg of purified MDP decarboxylase from S. mitis were added to 0.1 ml of reaction mixture. Control reactions were performed in which either no enzyme was added, or no ATP was added.
To validate the combined action of two enzymes, a series of additional controls were carried out. In one assay, MDP decarboxylase from S. mitis (0.21 mg) was the only enzyme using as the catalyst. In the other experiment, 0.21 mg of the Th. acidophilum (L200E) enzyme was added, lacking S. mitis decarboxylase. The assays were incubated in a sealed vial (Interchim) without shaking for 24 hours at 37° C. Isoprenol extraction and analysis were performed according to the procedure described in Example 4.
The effect of S. mitis MDP decarboxylase concentration was assessed under the following conditions:
0.01 mg of purified MDP decarboxylase from Th. acidophilum (mutant L200E) and a varying amount (from 0 to 0.4 mg) of purified MDP decarboxylase from S. mitis were added to 0.1 ml of reaction mixture. The mixtures were then incubated without shaking at 37° C. for 24 h in a sealed vial. Isoprenol extraction and analysis were performed according to the procedure described in Example 4.

[3] = Phosphotransferase activity: ADP release in the pyruvate kinase/lactate dehydrogenase coupled assay; format: biochemical; settings: 40° C., pH 7.5
Description: as §1, §2

[4] = Complementation assay: Th. acidophilum MDP decarboxylase (mutant L200E) with each tested MDP decarboxylase, isoprenol by GC-FID; format: biochemical; settings: 0.01 mg Th. acidophilum (L200E) enzyme + 0.5 mg tested enzyme in 0.1 ml, 200 mM mevalonate, 37° C., 24 h (FIG. 7)
Protocol: MDP decarboxylases were evaluated using a complementation assay. Th. acidophilum MDP decarboxylase (mutant L200E) was incubated together with each tested enzyme from the library.
The combined enzymatic assay was carried out under the following conditions:
The pH was adjusted to 7.5
0.01 mg of the Th. acidophilum enzyme and 0.5 mg of the MDP decarboxylase to be tested were added to 0.1 ml of reaction mixture. Reaction mixture containing only […] of the Th. acidophilum MDP decarboxylase (L200E) was used as reference. The assays were incubated without shaking at 37° C. for 24 h in a sealed vial (Interchim). The isoprenol production was analyzed as follows. An aliquot of 50 μl of liquid phase was removed and mixed with 100 μl of ethyl acetate. 100 μl of the upper ethyl acetate phase was transferred to a clean vial for analysis by gas chromatography. Commercial isoprenol was used as reference. The samples were analyzed on a Varian GC-430 gas chromatograph equipped with a flame ionization detector (FID). […] The retention time of isoprenol in these conditions was 7.38 min.

[5] = substrate: CC(O)(CCO)CC(=O)O; assay: purified protein, by the assay type; format: biochemical, Thermoplasma acidophilum; settings: other: 40° C., pH 7.5, 5 mM ATP, 0 to 5 mM R,S-sodium mevalonate
Description: as §1, §2

## CC(O)(CCO)CC(=O)O (stereo not drawn) [mevalonate]
[1]
  Km: 200 µM
  kcat: 0.002 s⁻¹

B1: Streptococcus mitis: MDP decarboxylase from Streptococcus mitis (strain B6), SEQ ID NO: 10 (protein)
chain: MDREPVTVRSYANIAIIKYWGKKKEKEMVPATSSISLTLENMYTETTLSSLPTDATADAFYINGQLQNEAEHVKMSKIIDRYRPDGDGFVRIDTQNSMPTAAGLSSSSSGLSALVKACNAYFKLGLNRSQLAQEAKFASGSSSRSFYGPLGAWDKDSGEIYPVETGLKLAMIMLVLEDKKKPISSRDGMKLCVETSTTFDDWVRQSEKDYQDMLVYLKANDFAKVGELTEKNALAMHATTKTASPAFSYLTDASYEAMDFVRQLREQGEACYFTMDAGPNVKVLCQEKDLEHLSEIFGQRYRLIVSKTKDLSQDGCC
modifications: Streptococcus mitis (strain B6)
[2]
  effect of enzyme concentration on amount of produced isoprenol: increase of the amount of produced isoprenol
[3]
  phosphotransferase activity (ADP production in the presence of mevalonate): reproducible increase in ADP production
[4]
  isoprenol production in combined assay: highest production of isoprenol

B2: Thermoplasma acidophilum MDP decarboxylase mutant L200E (SEQ ID NO: 16) (Thermoplasma acidophilum DSM 1728; L200E) (protein)
chain: MLHHHHHHTYRSIGSTAYPTIGVVLLGGIANPVTRTPLHTSAGIAYSDSCGSIRSETRIYADEATHIYFNGTESTDDNRSVRRVLDRYSSVFEEAFGTKTVSYSSQNFGILSGSSDAGAASIGAAILGLKPDLDPHDVENDLRAVSESAGRSLFGGLTITWSDGFHAYTEKILDPEAFSGYSIVAFAFDYQRNPSDVIHQNIVRSDEYPARKKHADEHAHMIKEYAKTNDIKGIFDLAQEDTEEYHSILRGVGVNVIRENMQKLISYLKLIRKDYWNAYIVTGGSNVYVAVESENADRLFSIENTFGSKKKMLRIVGGAWHRRPE
[5]
  Km: 500 µM
  kcat: 2.5 s⁻¹
  kcat/Km: 5000 M⁻¹ s⁻¹

B3: S. cerevisiae MDP decarboxylase: MDP decarboxylase of Saccharomyces cerevisiae, SEQ ID NO: 22 (protein, listed as Saccharomyces cerevisiae)
chain: MTVYTASVTAPVNIATLKYWGKRDTKLNLPTNSSISVTLSQDDLRTLTSAATAPEFERDTLWLNGEPHSIDNERTQNCLRDLRQLRKEMESKDASLPTLSQWKLHIVSENNFPTAAGLASSAAGFAALVSAIAKLYQLPQSTSEISRIARKGSGSACRSLFGGYVAWEMGKAEDGHDSMAVQIADSSDWPQMKACVLVVSDIKKDVSSTQGMQLTVATSELFKERIEHVVPKRFEVMRKAIVEKDFATFAKETMMDSNSFHATCLDSFPPIFYMNDTSKRIISWCHTINQFYGETIVAYTFDAGPNAVLYYLAENESKLFAFIYKLFGSVPGWDKKFTTEQLEAFNHQFESSNFTARELDLELQKDVARVILTQVGSGPQETNESLIDAKTGLPKE
[4]
  isoprenol production in combined assay: highest production of isoprenol
